# B1: EPB41L3 (parent)
# chain: SELGDYDPDECGSDYISEFRFAPN
# Variants of: B1
# Experiment: protein stability index of a GFP-peptide fusion (GPS, HEK-293T) (PSI 1-6); higher = more stable
# Details: c terminus: a fixed tail appended
# 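Also: lentivirally expressed fusions sorted by FACS into six bins by GFP to DsRed ratio, PSI derived from sequencing read proportions per bin multiplied by bin number.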
row,Variant,protein stability index
1,SELKDYDPDECGSDYISEFRFAPN,2.18
2,SELADYDPDECGSDYISEFRFAPN,2.56
3,SELNDYDPDECGSDYISEFRFAPN,1.9
4,SELCDYDPDECGSDYISEFRFAPN,1.94
5,SELGDYDPDECGSNYISEFRFAPN,1.99
6,SELGDYDPDECGSRYISEFRFAPN,2.51
7,SELGDYDPDECGSQYISEFRFAPN,1.47
8,SELGDYDPDECGSVYISEFRFAPN,1.31
9,SELGDYDPDECGSFYISEFRFAPN,2.43
10,SELGDYDPDECGSHYISEFRFAPN,1.86
11,SELGDYDPDECGSEYISEFRFAPN,1.5
12,SELGDYDPDECGSMYISEFRFAPN,2.07
13,SELGDYDPDECGSPYISEFRFAPN,1.63
14,SELGDYDPDECGSTYISEFRFAPN,2.58
15,FELGDYDPDECGSDYISEFRFAPN,1.86
16,VELGDYDPDECGSDYISEFRFAPN,2.25
17,LELGDYDPDECGSDYISEFRFAPN,2.02
18,CELGDYDPDECGSDYISEFRFAPN,1.88
19,QELGDYDPDECGSDYISEFRFAPN,2.87
20,NELGDYDPDECGSDYISEFRFAPN,1.81
21,WELGDYDPDECGSDYISEFRFAPN,1.53
22,YELGDYDPDECGSDYISEFRFAPN,3.03
23,IELGDYDPDECGSDYISEFRFAPN,1.71
24,GELGDYDPDECGSDYISEFRFAPN,1.99

row,Variant,protein stability index
1,SELGDYDPDECGSDYISKFRFAPN,2.5
2,SELGDYDPDECGSDYISTFRFAPN,1.94
3,SELGDYDPDECGSDYISAFRFAPN,2.1
4,SELGDYDPDECGSDYISNFRFAPN,2.15
5,SELGDYDPDECGSDYISVFRFAPN,2.06
6,SELGDYDPDECGSDYISWFRFAPN,1.99
7,SELGDYDPDECGSDYISMFRFAPN,1.96
8,SELGDYDPDECGSDYICEFRFAPN,2.52
9,SELGDYDPDECGSDYIREFRFAPN,2.34
10,SELGDYDPDECGSDYIFEFRFAPN,1.7
11,SELGDYDPDECGSDYIQEFRFAPN,2.44
12,SELGDYDPDECGSDYIYEFRFAPN,1.7
13,SELGDYDPDECGSDYIMEFRFAPN,2.11
14,SELGDYDPDECGSDYIGEFRFAPN,2.36
15,SELGDYDPDECGSDYIDEFRFAPN,3.94
16,SELGDYDYDECGSDYISEFRFAPN,1.82
17,SELGDYDVDECGSDYISEFRFAPN,1.9
18,SELGDYDSDECGSDYISEFRFAPN,2.29
19,SELGDYDWDECGSDYISEFRFAPN,1.76
20,SELGDYDRDECGSDYISEFRFAPN,2.1
21,SELGDYDADECGSDYISEFRFAPN,2.44
22,SELGDYDFDECGSDYISEFRFAPN,2.37
23,SELGDYDCDECGSDYISEFRFAPN,1.51
24,SELGDYDMDECGSDYISEFRFAPN,2.08

row,Variant,protein stability index
1,SELGDYDHDECGSDYISEFRFAPN,2.1
2,SELGDYDPDECGSDYISEFRFAQN,2.92
3,SELGDYDPDECGSDYISEFRFAKN,2.68
4,SELGDYDPDECGSDYISEFRFAIN,2.7
5,SELGDYDPDECGSDYISEFRFALN,2.81
6,SELGDYDPDECGSDYISEFRFACN,2.12
7,SELGDYDPDEEGSDYISEFRFAPN,2.7
8,SELGDYDPDEQGSDYISEFRFAPN,2.49
9,SELGDYDPDEIGSDYISEFRFAPN,2.2
10,SELGDYDPDELGSDYISEFRFAPN,2.06
11,SELGDYDPDEYGSDYISEFRFAPN,2.1
12,SELGDYDPDERGSDYISEFRFAPN,2.01
13,SELGDYDPDEGGSDYISEFRFAPN,2.26
14,SELGDYDPDESGSDYISEFRFAPN,2.51
15,SELGDYDPDENGSDYISEFRFAPN,2.27
16,SELGDYDPDEMGSDYISEFRFAPN,2
17,SELGDYDPDEFGSDYISEFRFAPN,1.77
18,SEIGDYDPDECGSDYISEFRFAPN,2.02
19,SEFGDYDPDECGSDYISEFRFAPN,2.36
20,SEQGDYDPDECGSDYISEFRFAPN,2.46
21,SEKGDYDPDECGSDYISEFRFAPN,1.74
22,SEPGDYDPDECGSDYISEFRFAPN,2.27
23,SELGHYDPDECGSDYISEFRFAPN,1.79
24,SELGRYDPDECGSDYISEFRFAPN,2.05

row,Variant,protein stability index
1,SELGQYDPDECGSDYISEFRFAPN,1.75
2,SELGCYDPDECGSDYISEFRFAPN,2.06
3,SELGPYDPDECGSDYISEFRFAPN,2.35
4,SELGWYDPDECGSDYISEFRFAPN,1.74
5,SELGTYDPDECGSDYISEFRFAPN,2.03
6,SELGYYDPDECGSDYISEFRFAPN,2.09
7,SELGLYDPDECGSDYISEFRFAPN,1.92
8,SELGEYDPDECGSDYISEFRFAPN,1.7
9,SELGIYDPDECGSDYISEFRFAPN,1.87
10,SELGSYDPDECGSDYISEFRFAPN,1.75
11,SELGDVDPDECGSDYISEFRFAPN,2.1
12,SELGDTDPDECGSDYISEFRFAPN,1.97
13,SELGDIDPDECGSDYISEFRFAPN,2.06
14,SELGDRDPDECGSDYISEFRFAPN,1.84
15,SELGDKDPDECGSDYISEFRFAPN,2.17
16,SELGDFDPDECGSDYISEFRFAPN,2.01
17,SGLGDYDPDECGSDYISEFRFAPN,1.03
18,SNLGDYDPDECGSDYISEFRFAPN,2.03
19,SILGDYDPDECGSDYISEFRFAPN,1.7
20,SLLGDYDPDECGSDYISEFRFAPN,1.77
21,SDLGDYDPDECGSDYISEFRFAPN,1.79
22,SRLGDYDPDECGSDYISEFRFAPN,1.85
